Laboratory results taken from patent US20040234530.

Target: C1-esterase inhibitor (human plasma protease C1 inhibitor), purified or in human serum (UniProt P05155)
Sequence (P05155 23-500): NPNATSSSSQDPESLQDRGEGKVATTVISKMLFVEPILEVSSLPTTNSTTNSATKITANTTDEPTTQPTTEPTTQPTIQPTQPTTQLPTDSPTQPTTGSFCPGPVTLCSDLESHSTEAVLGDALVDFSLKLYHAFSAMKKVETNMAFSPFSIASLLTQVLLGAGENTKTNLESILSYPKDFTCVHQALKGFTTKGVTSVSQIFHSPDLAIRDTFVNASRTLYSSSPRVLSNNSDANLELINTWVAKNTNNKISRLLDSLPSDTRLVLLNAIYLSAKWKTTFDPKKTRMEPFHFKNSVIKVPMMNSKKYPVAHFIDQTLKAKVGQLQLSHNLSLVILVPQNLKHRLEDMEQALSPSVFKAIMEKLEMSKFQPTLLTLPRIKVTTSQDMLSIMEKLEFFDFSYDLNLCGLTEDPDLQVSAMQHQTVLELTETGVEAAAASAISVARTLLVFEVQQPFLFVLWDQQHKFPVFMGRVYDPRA

| Substance | cleavage of C1-INH (immunoblot) | kallikrein activity (cleavage of chromogenic substrate S-2302) |
| --- | --- | --- |
| StcE E435D-His (from pTEG1 in BL21(DE3), strain WAM2726) | While StcE-His is able to degrade C1-INH, we observed no such cleavage with the mutant protein | – |
| purified kallikrein (Calbiochem) | – | ranging from 88.8% (±2.6% SEM) to 10.3% (±1.3% SEM) activity |
